Reference: patent publication US8796227B2, “Peptides for inhibiting chemokine binding to chemokine receptors” (Biokine Therapeutics Ltd., priority 2002, dated 2014)
Entries after “also recorded” stand apart in the source; their conditions may differ. Bridges are numbered along the chain shown (N, C = ends). Where no end group is shown, it is not given here.

Key:
Human MCP-1 = target: T1, Human MCP-1 (Homo sapiens, UniProt P13500); test: ELISA analysis of the synthetic chemokine-binding peptide; conditions: chemokine-coated wells, specific binding = at least two fold of binding to control proteins (BSA, Actin, Fibronectin)
T1 construct: purchased PeproTech, Inc. 300-04
T1 sequence (P13500 24-99): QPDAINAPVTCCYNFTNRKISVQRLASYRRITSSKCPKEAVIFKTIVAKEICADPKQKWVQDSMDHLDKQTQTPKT
Experimental: (§1) Recombinant chemokines were ordered from PeproTech, Inc. (Rocky Hill, N.J., USA). Human SDF-1α (Cat. No. 300-28A), human MIG (Cat. No. 300-26) and human IL-8, (72 amino acids) (Cat. No. 200-08M), belong to the alpha-chemokines (C-X-C) family. Human MCP-1 (MCAF) (Cat. No. 300-04) and human Eotaxin (Cat No. 300-21) belong to the beta-chemokines (C-C family). All chemokines were prepared according to the company recommendations.
(§2) Peptides were synthesized in the Weizmann Institute of Science, Rehovot, Israel, in order to perform tests for characterization of their influence on the biological activity of the chemokines. The format of the various synthesized peptides was as follows: The cyclic peptides, ACX7CGGGSK-biotin-G and the linear peptides, X12GGGSK-biotin-G. The peptides were biotinylated on their C-termini; the biotin will serve as a detector during the following experiments. Each synthetic peptide was dissolved to concentration of 1 mg/ml (˜0.6 mM) in 4% DMSO (Dimethyl Sulphoxide, Sigma, Cat. # D-2650).
(§3) NUNC-Immuno™ MaxiSorp™ plates (Cat. No. 4-42404) were coated with the appropriate chemokine (0.1 ml/well, 0.1-1.0 μg/ml in 0.1 M NaHCO3, pH 8.6), overnight at 4° C. The plates were then blocked with 0.2 ml/well of blocking buffer (5 mg/ml BSA in 0.1 NaHCO3). Control wells were treated with blocking buffer alone, with no addition of target protein (chemokine). The plates were washed 6 times with PBST (0.1% Tween 20 in PBS), followed by incubation for 45 minutes at room temperature with 10-fold serial dilutions of individual synthetic peptides (10pg-10 μg) with 1% BSA (PBST-BSA)/well. After the plates were washed 6 times with PBST, the bound peptides were probed by HRP-SA Conjugate, diluted 1:10,000 to 1:20,000 in PBST-BSA, 0.1 ml/well for 45 minutes at room temperature. The target-bound synthetic peptides probed with HRP-SA were quantified by DAKO TMB one-step substrate system, followed by the addition of stop solution, HCl—H2SO4 mixture (0.1 ml/well) (1N HCl, 3N H2SO4). The results were analyzed by ELISA reader at OD450.
(§4) The present invention identifies chemokine-binding peptides with biological activity. The binding specificities of the various peptides to the chemokines were determined by screening against BSA, Actin and Fibronectin-coated wells as negative controls in parallel experiments. The binding level of the peptides to the various chemokines, which reached at least two fold of the binding level to the control proteins, was considered a specific binding.
(§5) The specific binding of the peptides was detected by screening methodology, using ELISA, as described in “Materials and Methods”, employing microplates coated with the various chemokines to be checked. The binding specificities of the various peptides to the various chemokines were determined by screening against BSA, Actin and Fibronectin-coated wells as negative controls in parallel experiments.
(§6) Again, the specificity of the binding, either to one chemokine or more, was established by comparing binding level with the control binding level to non-related proteins, (shown in the Figure as a broken line).

MIG [1] = target: T2, MIG (Homo sapiens, UniProt Q07325); test: as above; conditions: chemokine-coated wells, specific binding = at least two fold of binding to control proteins (BSA, Actin, Fibronectin)
T2 construct: purchased PeproTech, Inc. 300-26
T2 sequence (Q07325 23-125): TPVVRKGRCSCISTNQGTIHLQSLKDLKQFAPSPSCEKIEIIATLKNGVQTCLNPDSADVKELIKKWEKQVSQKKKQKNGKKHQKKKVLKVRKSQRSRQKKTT
Experimental: as §1, §2, §3, §4, §5, §6

MIG [2] = target: T2, MIG; test: Biovalidation: laminar flow assay, chemokine and VCAM-1 activated adhesion of T cells; assay type: cell-based; conditions: for Reduction of the activity of MIG: T cell adhesion under flow
Experimental: 50 ml blood was added to 10 ml Dextran (Dextran T-500 6% w/v) in PBS (phosphate buffer saline), and 7 ml citrate buffer (25 g citrate, 8 g citric acid in 500 ml PBS). The solution was incubated for 30 min at 25° C. 10 ml Ficoll 1077 (Sigma) was added to the bottom of the tube. The tube was then centrifuged at 2,000 rpm for 30 min, at 18° C., (with the brake mode of the centrifuge off). The interphase was collected and washed twice with 8 ml PBS-5% FCS (fetal calf serum), followed by centrifugation at 1,400 rpm, for 5 min, at 18° C. The cells were re-suspended in PBS-5% FCS at a concentration less than 10^8/ml. 2 ml of the cell solution were applied and incubated for 45 min at 25° C. on a Perspex Nylon wool column, which was pre-soaked with PBS-5% FCS. Each column was washed with 8 ml PBS-5% FCS and the cells (T-cells and erythrocytes) were eluted by 50 ml of 5 mM EDTA in PBS. A red pellet was obtained by centrifugation at 1,400 rpm, at 4° C., for 5 min, with the brake on. In order to perform lysis of the erythrocytes, the red pellet was re-suspended in 5 ml lysis-buffer (155 mM NH4Cl, 10 mM KHCO3, 0.1 mM EDTA, X0.1PBS) for 4 min, followed by immediate addition of 50 ml of PBS-EDTA.
Following centrifugation at 1,400 rpm, at 4° C., for 5 min with brake on, the pellet was washed again with 50 ml PBS-EDTA and re-centrifuged under the same conditions. A white pellet was obtained and re-suspended in RPMI/10% FCS/L-glutamine/sodium pyruvate/antibiotics at a concentration of 3^X10^6 cells/ml. The cells were incubated for 2 h at 37° C., followed by collection of the non-adherent cells. The cells were ready for use in experiments after overnight incubation at 37° C. […]
Laminar flow assays were performed as follows. Polystyrene plates (B.D) were coated with soluble VCAM-1 at 10 μg/ml in the presence of 2 μg/ml HSA carrier. The plates were washed three times with PBS and blocked with HSA (20 μg/ml in PBS) for 2 hrs at room temperature. Alternatively, washed plates were coated with 10 μg/ml MIG chemokine in PBS for 30 min at room temperature, before being blocked with HSA. The plates were assembled as the lower wall of a parallel wall flow chamber and mounted on the stage of an inverted microscope. The peptide, as described previously, (10 μg/ml) was allowed to settle on the substrate coated chamber wall for 10 min, at 37° C. and then washed. T cells (5×10^6/ml, purity >98%) were suspended in binding buffer, perfused into the chamber and allowed to settle on the substrate coated chamber wall for 1 min, at 37° C. Flow was initiated and increased in 2 to 2.5 fold increments every 5 sec. generating controlled shear stresses on the wall. Cells were visualized in a 20× objective of an inverted phase-contrast Diaphot Microscope (Nikon, Japan) and photographed with a long integration LIS-700 CCD video camera (Applitech; Holon, Israel), connected to a video recorder (AG-6730 S-VHS, Panasonic, Japan). The number of adherent cells resisting detachment by the elevated shear forces was determined after each interval by analysis of videotaped cell images, and was expressed as the percent of originally settled cells. All adhesion experiments were performed at least three times on multiple test fields.

SDF-1α = target: T3, SDF-1α (Homo sapiens, UniProt P48061); test: ELISA analysis of the synthetic chemokine-binding peptide; conditions: chemokine-coated wells, specific binding = at least two fold of binding to control proteins (BSA, Actin, Fibronectin)
T3 construct: purchased PeproTech, Inc. 300-28A
T3 sequence (P48061 22-89 limits assumed): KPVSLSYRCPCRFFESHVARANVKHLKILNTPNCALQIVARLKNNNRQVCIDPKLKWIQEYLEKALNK
Experimental: as §1, §2, §3, §4, §5, §6

[3] = system: chemokines MCP-1, SDF-1α, MIG, Eotaxin and IL-8; test: ELISA binding to the panel of chemokines (chemokine not singled out); design: species or system human; conditions: five chemokines tested, control binding level = one fold
Experimental: as §1, §2, §3
The present invention identifies chemokine-binding peptides with biological activity. The binding specificities of the various peptides to the chemokines were determined by screening against BSA, Actin and Fibronectin-coated wells as negative controls in parallel experiments. […]
The specific binding of the peptides was detected by screening methodology, using ELISA, as described in “Materials and Methods”, employing microplates coated with the various chemokines to be checked. The binding specificities of the various peptides to the various chemokines were determined by screening against BSA, Actin and Fibronectin-coated wells as negative controls in parallel experiments. […]

Eotaxin = target: T4, Eotaxin (Homo sapiens, UniProt P51671); test: ELISA analysis of the synthetic chemokine-binding peptide; conditions: chemokine-coated wells, specific binding = at least two fold of binding to control proteins (BSA, Actin, Fibronectin)
T4 construct: purchased PeproTech, Inc. 300-21
T4 sequence (P51671 24-97): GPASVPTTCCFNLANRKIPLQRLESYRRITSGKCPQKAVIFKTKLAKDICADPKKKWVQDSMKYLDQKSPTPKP
Experimental: as §1, §2, §3, §4, §5, §6

human IL-8 = target: T5, human IL-8 (Homo sapiens, UniProt P10145); test: as above; conditions: chemokine-coated wells, specific binding = at least two fold of binding to control proteins (BSA, Actin, Fibronectin)
T5 construct: human IL-8, (72 amino acids) (Cat. No. 200-08M); purchased PeproTech, Inc. 200-08M
T5 sequence (P10145 28-99 limits assumed): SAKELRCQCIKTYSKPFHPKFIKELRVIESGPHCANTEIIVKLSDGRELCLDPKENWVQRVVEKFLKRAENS
Experimental: as §1, §2, §3, §4, §5, §6

IL-8 = target: T6, IL-8 (Homo sapiens, UniProt P10145); test: Biovalidation: laminar flow assay, chemokine and VCAM-1 activated adhesion of T cells; assay type: cell-based; conditions: VCAM-1
T6 construct: human IL-8, (72 amino acids) (Cat. No. 200-08M); purchased PeproTech, Inc. 200-08M
T6 sequence (P10145 28-99): T5 sequence (P10145 28-99 limits assumed)

ACHASLKHRC [BKT-P48] was tested, and the “Bound chemokines (at least): MCP-1” value (Human MCP-1) was “MCP-1”.

For AHSLKSITNHGL [BKT-P44], the “Bound chemokines (at least): MCP-1” value (Human MCP-1) was “MCP-1”.

With CAHLSPHKC [BKT-P50] the “Bound chemokines (at least): MIG” value (MIG [1]) was “MIG”.

CDIPWRNEC [BKT-P10] was tested, and the “Bound chemokines (at least): MIG” value (MIG [1]) was “does not bind”, the “Percentage of arrested cells” value (MIG [2]; MIG plus peptide (FIG. 4), MIG alone about 25-30%, control = VCAM-1 alone) was 25%-30% and the “Reduction of the activity of MIG” value (MIG [2]; VCAM-1) was “no influence on the activity of MIG”.

For CHHNLSWEC [BKT-P56], the “Bound chemokines (at least): SDF-1α” value (SDF-1α) was “SDF-1α”.

“CKESATYFC (ACKESATYFCGGGS-{K(biotin)-Gly}; disulfide 2-10 (inferred)) [BKT-P18]” was tested, and the “Binding to the various chemokines” value [3] was “no binding to the various chemokines”.

In the case of ESDLTHALHWLG [BKT-P51], the “Bound chemokines (at least): MCP-1” value (Human MCP-1) is reported as “MCP-1”.

FSMDDPERVRSP [BKT-P9] was tested, and the “Binding to the various chemokines” value [3] was “bind specifically to a single chemokine; also recorded: specifically bind to one specific chemokine”.

With GDFNSGHHTTTR [BKT-P27] the “Bound chemokines (at least): MCP-1” value (Human MCP-1) was “MCP-1”.

With GVHKHFYSRWLG [BKT-P33] the “Bound chemokines (at least): Eotaxin” value (Eotaxin) was “Eotaxin”.

With HHFHLPKLRPPV [BKT-P45] the “Bound chemokines (at least): MCP-1” value (Human MCP-1) was “MCP-1”, the “Bound chemokines (at least): MIG” value (MIG [1]) was “MIG” and the “Bound chemokines (at least): IL-8” value (human IL-8) was “IL-8”. For the same sequence, the “Level of Antagonistic Effect” value (MIG [2]; Chemokine checked MIG, T cells, VCAM-1, peptide 10 μg/ml) was “+ (+ 20%)”, the “Reduction of the activity of MIG” value (MIG [2]; VCAM-1) was “about 20%” and the “Level of Antagonistic Effect” value (IL-8; Chemokine checked IL-8, T cells, peptide 10 μg/ml) was “+++ (+++ 100%)”. For the same sequence, the “Abolishment of the activity of IL-8” value (IL-8; T cell adhesion under flow) was 100%.

For HHTWDTRIWQAF [BKT-P55], the “Bound chemokines (at least): MCP-1” value (Human MCP-1) was “MCP-1”.

HPTTPFIHMPNF (HPTTPIHMPNF) [BKT-P54] was tested, and the “Bound chemokines (at least): MIG” value (MIG [1]) was “MIG”.
